Assay results published in PMC9951844 (Nature Communications, 2023).

B1: YB13-292 Fab (Fab, V domains shown)
VH: EVQLVESGGGLVKPGGSLRLSCAASGFSFITYNMNWVRQAPGKGLEWVSSISSNILSSTSYIYYADSVKGRFTISRDDAANSLFLQMNSLRVEDTAQYYCARTRSRSVRNCTSATCPVDAFDLWGQGTMVIVSS
VL: DIVLTQSPLSLPVTPGEPASISCRSSQSLLRSNGYNYLDWYLQKPGQSPHLLIYLGSNRASGVPDRFSGSGSGTDFTLKISRVEAEDVGVYYCMQALQTPYTFGQGTNLEIK
B2: YB9-258 Fab (Fab, V domains shown)
VH: EVQLVESGGGLIQPGGSLRLSCAASGLTVSSNYMHWVRQAPGKGLEWVSVLYAGGSAFYADSVKGRFTISRNNSKNTLYLQMNSLRAEDTAIYYCARGLGDYLDSWGQGTLVTVSS
VL: DIQMTQSPSSVSASVGDRVTITCRASQGIGSWLAWYQQKPGKAPQLLIYAASTLQSGVPPRFSGSGSGTDFTLTITSLQPEDFASYYCQQANSVLALTFGGGTKVEIK
B3: R1-32 Fab (Fab, V domains shown)
VH: EVQLVESGAEVKKPGSSVKVSCKASGGTFSSYAISWVRQAPGQGLEWMGGIIPILGIANYAQKFQGRVTITADKSTSTAYMELSSLRSEDTAVYYCARENGYSGYGAAANFDLWGRGTLVTVSS
VL: QSVLTQPPSVSGAPGQRVTISCTGSSSNIGAGYDVHWYQQLPGTAPKLLIYGNSNRPSGVPDRFSGSKSGTSASLAITGLQAEDEADYYCQSYDSSLSGSVFGGGTKLTVL

Assays:
S-R/6P/Omicron BA.1 = S-R/6P/Omicron BA.1 (SARS-CoV-2 Omicron BA.1 (B.1.1.529), S371L | S373P | S375F | K417N | A484 | proline substitution at residue 817 | …); test: cryo-EM structure; details: both partners purified
S-GSAS/6P/Wildtype = S-GSAS/6P/Wildtype (SARS-CoV-2 hCoV-19/Wuhan/WIV04/2019, UniProt P0DTC2, proline substitution at residue 817 | proline substitution at residue 892 | …); test: cryo-EM structure; details: both partners purified

| Binder | stoichiometry N (S-R/6P/Omicron BA.1) | stoichiometry N (S-GSAS/6P/Wildtype) |
| --- | --- | --- |
| B1 | 3 Fabs per spike trimer (3:3 protomer:Fab) | – |
| B2 | – | 3 Fabs per spike trimer (3:3:3) |
| B3 | – | 3 Fabs per spike trimer (3:3:3) |
